Results taken from PMC11147780, “Vaccination induces broadly neutralizing antibody precursors to HIV gp41” (Nature Immunology, 2024).

Key:
[1] = biological target: T1, 10E8-GT10.2 epitope scaffold (designed scaffold 10E8-GT10.2 with …, N-linked glycosylation sites added (positions not given))
T1 chain: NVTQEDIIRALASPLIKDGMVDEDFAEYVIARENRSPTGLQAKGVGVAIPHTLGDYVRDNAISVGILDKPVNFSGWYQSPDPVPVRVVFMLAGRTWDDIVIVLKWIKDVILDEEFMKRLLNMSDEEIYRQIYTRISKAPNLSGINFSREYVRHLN

10E8-B1 epitope scaffold = biological target: T2, 10E8-B1 epitope scaffold (synthetic construct (resurfaced …))
T2 chain: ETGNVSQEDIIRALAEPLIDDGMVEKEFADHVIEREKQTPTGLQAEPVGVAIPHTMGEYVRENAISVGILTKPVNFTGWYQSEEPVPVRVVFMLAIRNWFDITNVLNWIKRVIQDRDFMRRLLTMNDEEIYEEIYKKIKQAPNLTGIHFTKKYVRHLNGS

[2] = biological target: T3, 10E8-GT10.1 epitope scaffold (synthetic construct, circularly …, N-linked glycosylation sites added (positions not given))
T3 chain: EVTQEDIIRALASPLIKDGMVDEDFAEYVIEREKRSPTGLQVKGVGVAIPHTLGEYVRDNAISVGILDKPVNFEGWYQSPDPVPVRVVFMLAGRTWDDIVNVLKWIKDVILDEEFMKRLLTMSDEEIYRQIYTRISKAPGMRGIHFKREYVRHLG

Row | Binder | Kd [1] [µM] | Kd (10E8-B1 epitope scaffold) [µM] | Kd [2] [µM]
1 | NHP-10E8_MPER-GT10v55_W3-20 (antibody, V domains shown) VH: EVQLVESGGGLVQPGGSLRLSCAASGFSFSNYWMSWVRQAPGKGLEWVGFIKNKADGGTAAYAESVKGRFTISRDDSKNTLYLQMNSLKTEDTAVYFCARDLGRYNFWSAFYSQNRFDVWGPGVLVTVSS VL: SYEVTQPPSVSVSPGQMARITCGGDNLGSKYVHWYQQKPAQAPVMVMYDDSERPSGIPERFSGSKSGNTATLTISGVEAGDEADYYCQVWDSSSDHPLFGGGTRLTV | 0.00482 | 4.27 | 
2 | MPER-053 (antibody, V domains shown) VH: EVQLVESGGGLVQPGRSLRLSCTASGFTFGDYAMSWFRQAPGKGLEWVGFIRSKAYGGTTEYAASVKGRFTISRDDSKSIAYLQMNSLKTEDTAVYYCTREGAYYDFWSGYLTKVYGMDVWGQGTTVTVSS VL: not shown | 7.9 |  | 11
3 | MPER-055 (antibody, V domains shown) VH: not shown VL: DIQMTQSPSSLSASVGDRVTITCRASQGIRNDLGWYQQKPGKAPKRLIYAASSLQSGVPSRFSGSGSGTEFTLTISSLQPEDFATYYCLQHNSYPLSFGGGTKVEIK | 22 |  | 16
4 | MPER-063 (antibody, V domains shown) VH: QVQLVQSGAEVKKPGSSVKVSCKASGGTFSSYAISWVRQAPGQGLEWMGGIIPIFGTANYAQKFQGRVTITADESTSTAYMELSSLRSEDTAVYYCARGGTHYDFWSGYSDYYYGMDVWGKGTTVTVSS VL: not shown | 6.6 |  | 4
5 | MPER-068 (antibody, V domains shown) VH: QVQLQESGPGLVKPSETLSLTCTVSGGSISSYYWSWIRQPPGKGLEWIGYIYYSGSTNYNPSLKSRVTISVDTSKNQFSLKLSSVTAADTAVYYCARSPSPYYDFWSGYFQETNWFDPWGQGTLVTVSS VL: not shown | 2.1 |  | 0.7
6 | MPER-070 (antibody, V domains shown) VH: QVQLQESGPGLVKPSETLSLTCTVSGGSISSSSYYWGWIRQPPGKGLEWIGSIYYSGSTYYNPSLKSRVTISVDTSKNQFSLKLSSVTAADTAVYYCARHHPHAYDFWSGYYSERYYFDYWGQGTLVTVSS VL: not shown | 13 |  | 4.1
7 | MPER-071 (antibody, V domains shown) VH: QVQLVQSGAEVKKPGASVKVSCKASGYTFTSYDINWVRQATGQGLEWMGWMNPNSGNTGYAQKFQGRVTMTRNTSISTAYMELSSLRSEDTAVYYCARGITYYDFWSGYYPTPYYFDYWGQGTLVTVSS VL: not shown |  |  | 6.4
8 | MPER-072 (antibody, V domains shown) VH: QVQLQESGSGLVKPSQTLSLTCAVSGGSISSGGYSWSWIRQPPGKGLEWIGYIYHSGSTYYNPSLKSRVTISVDRSKNQFSLKLSSVTAADTAVYYCARAGHNYDFWSGYYPVGGAFDIWGQGTMVTVSS VL: not shown | 16 |  | 13
9 | MPER-073 (antibody, V domains shown) VH: QVQLQESGPGLVKPSQTLSLTCTVSGGSISSGGYYWSWIRQHPGKGLEWIGYIYYSGSTYYNPSLKSRVTISVDTSKNQFSLKLSSVTAADTAVYYCARDCAVYDFWSGYGPGGWFDPWGQGTLVTVSS VL: not shown | 20 |  | 7.3
10 | NHP-10E8_MPER-GT10v55_W21-04 (antibody, V domains shown) VH: EVQLVESGGGLVQPGGSLRLSCVASGFTFSDYGFDWVRQAPGKGLEWVGFIRSKDYGGSTEYAASVKGRFTISRDDSKNTAYLQMTSLKAEDTAVYFCTRDLGFYNFWTGYYEVNRFDVWGAGVLVTVSS VL: QPVLTQPTSLSASPGASARLTCTLRSGISVGSYRIFWYQQKPGSPPRYLLNYHTDSDNHQGSGVPSRFSGSKDASANAGILLISGLQSDDEADYYCMIWHNNACFFGGGTRLTV | 0.000115 | 22.9 | 
11 | NHP-10E8_MPER-GT10v55_W26-03 (antibody, V domains shown) VH: QVQLQESGPGVVKPSETLSLTCAVSGGSISDNYWWTWIRQPPGKGLEWIGYIYGSNTSTNYNPSLKSRVTISKDTSKNQFSLKLSSVTAADTAVYYCARDREFYNFWSGYYGAYGLDSWGQGVVVTVSS VL: QPVLTQPTSLSASPGASARLSCTLSSGINVGSYSIYWYQQKPGSPPRYLLYYDSDSNKHQGSGVPSRFSGSNDASANAGLLLISGLQSEDEADYYCAIWHSSTYYIFGGGTRLTV | 0.000178 | 0.84 | 
12 | NHP-10E8_MPER-GT10v55_W26-05 (antibody, V domains shown) VH: EVQLVESGGGLVQPGGSLRLSCAASGFTFSNYWMNWVRQAPGKGLEWVGFIKNKADGGTAAYAESVKGRFTISRDDSKNTLYLQMNSLKTEDTAVYYCTREATFYNFWSGYYTPQYGLDSWGQGVVVTVSS VL: QPVLTQPTSLSASPGASARLTCTLSSGISVGSYRIFWYQQKPGSPPRYLLNYHTDSDKHQGSGVPSRFSGSKDASANAGILLISGLQSEDEADYYCMIWHNNAHGLFGGGTRLTV | 0.263 | 9.68 | 
13 | NHP-Comp_MPER-GT10v55_W21-03 (antibody, V domains shown) VH: QMQLQESGPGLVKPSETLPLTCAVSGASISSNFWSWIRQAPGMGLEWIGRIYGNGGSTDYNPSLKSRVTISIDTSKNQFSLKLSSVTAADTAVYFCASSFLFRFDVWGPGVLVTVSS VL: QSVLTQPPSASGAPGQSVTISCSGSSSNIGGNHVYWYQQLPGTAPKLLIYYSNQRPSGVPDRFSGSKSGTSASLAITGLRSEDEADYYCAAWDDSLSSYIFGAGTRLTV | 0.0108 |  | 
14 | NHP-Comp_MPER-GT10v55_W21-04 (antibody, V domains shown) VH: DVQLVESGGGLVKPGGSLRLSCVASDFTFSSYEMHWVRQAPGKGLEWVSLISESGDTTYYADSVKGRFTISRDNAKNSLFLQMNSLRAEDTAVYYCTRAITVFGVVITHFDYWGQGVLVPVSS VL: QSALTQPPSVSKSLGQSVTISCTGTSSDIGGYYAVSWYQQHSGTAPRLLIYEVSKRPSGVSDRFSGSKSGNTASLTISGLQAEDEADYYCGSFRTGYTYIFGAGTRLTV | 0.0156 |  | 
15 | NHP-Comp_MPER-GT10v55_W26-02 (antibody, V domains shown) VH: QLQLQESGPGLVKPSETLSVTCAVSGGSISGGYGWSWIRQPPGKGLEWIGHIFDSFGNTYYNPSLKSRVTISTDTSKNQFSLKLSSVTAADTAVYYCARETVLGAGDYFDSWGQGVLVTVSS VL: DIQMTQSPSSLSASVGDTVTITCRASQDINNYLAWYQQKPGKAPKPLIYHASYLESGVPSRFSGSGSGTDFTLTISSLQPEDFAIYYCQQHNAYPFTFGPGTKLDIK | 0.00318 |  | 
16 | NHP-Comp_MPER-GT10v55_W26-04 (antibody, V domains shown) VH: QVQLQESGPGVVKPSETLSLTCAVSGDSISDSYWWSWIRQPPGKGLEWIGYIYGSSTNTNYNPSLKSRVTISKDTSKNQFSLKLSSVTAADTAVYYCARESRWLEEYPLNTFDYWGQGVLVTVSS VL: DIVMTQTPLSLPVTPGEPASISCRSSQSLLDSYGYIHLHWYLQKPGQSPQLLIYLGSNRASGVPDRFSGSGSGTDFTLKISRVEAEDVGVYYCMQTLQTPRTFGQGTKVEIK | 0.0208 |  | 
17 | NHP-Comp_MPER-GT10v55_W26-06 (antibody, V domains shown) VH: QVQLVQSGAEVKQPGASVKVSCLASGYTFTSYSIHWLRQAHGQRLEWMGWINTATGNPTYTQGFKERFTFSMDTSITTAYLQISSLKTEDTAVYYCARLYRDFWGGYYASSLDVWGRGVLVTVSS VL: SYDLTQPPSVSVSPGQTARITCGGENIGSEPVHWYQQKPPQAPLQVIYSDSERPSGIPERFSGSKSGNTATLTISGVEAGDEADYYCQVWDISSDHPYIFGAGTRLTV | 0.000112 |  | 
18 | NHP-Comp_MPER-GT10v55_W21-07 (antibody, V domains shown) VH: EVQLVESGGGLAKPGGSLRLSCAASGFTFSSYWMNWVRQTPGKGLEWISAINSGGGSTYYADSVKGRFTISRDNSKNTLSLQMNSLRAEDTAVYYCAKGYGLDSWGQGVVVTVSS VL: QAAPTQPPSVSGSPGQSVTISCTGTSSDIGYYNAVSWYQQHPGKAPKLMIYEVSKRPSGVSDRFSGSKSGNTASLTISGLQAEDEADYYCSSYAGSNTFIFGAGTRLTV | 5.51 |  | 
19 | NHP-Comp_MPER-GT10v55_W21-08 (antibody, V domains shown) VH: EVQLVESGGGLVQPGGSLRLSCAASGFTFSHYGLHWVRQAPGKGLEWVAVIWSDGNKKYYADSVKDRFTISRDNSKNMLYLQMNNLKLEDTAVYYCATYTYGDWGQGVLVTVSS VL: SYELTQPPSVSVSPGQMARITCGGDNLGSKYVHWYQQKPPQAPVLVIYDDSERPSGIPERFSGSKSGNTATLTISGVEAGDEADYYCQVWDSSSDNWVFGGGTRLTV | 0.0151 |  | 
20 | NHP-Comp_MPER-GT10v55_W26-08 (antibody, V domains shown) VH: QVTLKESGPALVKPTQTLTLTCTFSGFSISTTGTGVGWIRQPPGKALEWLATISWNDSKYYSTSLKSRLTISKDTSKNQVVLTFTNMDPVDTATYSCARVLQPTITTTNRFDVWGPGVLVTVSS VL: SYDLTQPPSVSVSPGQTARITCGGDNIGSKYVHWYQQKPPQAPVLVIYYDTERPSGIPERFSGSKSGNTATLTISGVEAGDEADYYCQVWDSSSDHNVFGSGTKLTV | 0.00218 |  | 
21 | NHP-Comp_MPER-GT10v55_W26-10 (antibody, V domains shown) VH: EVQLVESGGGLAKPGGSLRLSCVASGFRFSNYWMNWVRQTPGKGLEWISVINSGGVITYYADSVKGRFTISRDNSKNTLSLQMNSLRTEDTAVYYCARQSLDWGLDSWGQGVVVTVSS VL: SSELTQDPAVSVALGQTVRITCQGDSLRNHYASWYQQKPGQAPVLVVYGNNNRPSGIPERFSGSRSGNTASLTITGAQVEDEADYYCDSWDSSGTHRVFGGGTRLTV | 0.0746 |  | 
22 | NHP-Comp_MPER-GT10v55_W26-11 (antibody, V domains shown) VH: EVQLVESGGGLAKPGGSLRLSCAASGFTFSNYWMCWVRQAPGKGLEWISVINSVTSGTYYADSVKGRFTISRENAKNTLYLQMDRLRVEDTAVYYCAWGLGLTAPPVYWGQGVLVTVSS VL: ETVVTQEPSLSVSPGGTVTLTCGLSSGSVSTSNYPSWYQQTPGQAPRTLVYRTNIRPSGVPDRFSGSILGNKAALTITGAQADDESDFYCLFYMGSGIWVFGGGTRLTV | 0.0128 |  | 
